Results from patent US7375083B2, “Pharmaceutical compositions for prevention of overdose or abuse” (Shire LLC, priority 2003, dated 2008).
Where a SMILES comes first, the peptide text is derived from it. The star is where a group is joined. X1 = COc1ccc2c3c1O[C@H]1C(O*)=CC[C@H]4[C@@H](C2)N(C)CC[C@]314

Key:
[1] = Oral pharmacokinetics in rats, plasma d-amphetamine by ELISA; details: for Percent AUC / Percent Cmax: Oral; for Bioequivalence with amphetamine: rat, oral
[2] = in vivo; cited from earlier work
[3] = Intranasal bioavailability of hydrocodone conjugates in rats, LC/MS/MS; details: intranasal, 1 mg/kg dose; for AUC (ng/ml h) 0-1 h / Cmax: hydrocodone plus hydromorphone; for Percent HC (AUC) / Percent HC (Cmax): relative to hydrocodone bitartrate
[4] = Intravenous bioavailability of hydrocodone conjugates in rats, LC/MS/MS; details: intravenous, 1 mg/kg dose
[5] = Oral bioavailability of hydrocodone conjugates in rats, LC/MS/MS; details: for AUC (ng/ml h) 0-8 h / Cmax: hydrocodone plus hydromorphone; for Percent HC (AUC) / Percent HC (Cmax): relative to hydrocodone bitartrate
[6] = relative to amphetamine (first value where two are given)
[7] = relative to amphetamine, second of two values printed in the cell
[8] = relative to hydrocodone bitartrate

CC(Cc1ccccc1)NC(=O)CNC(=O)[C@@H](N)CCCCN (some centres unmarked) [KG-Amp]
Percent AUC [1, 6]: 69%
Percent Cmax [1, 6]: 71%

CC(C)CC(N)C(=O)NC(C)Cc1ccccc1 [L-Amp]
Percent AUC [1, 6]: 65%
Percent Cmax [1, 6]: 81%

CC(C)C[C@H](N)C(=O)N[C@@H](CCC(=O)O)C(=O)NC(C)Cc1ccccc1 (some centres unmarked) [LE-Amp]
Percent AUC [1, 6]: 40%
Percent Cmax [1, 6]: 28%

COc1ccc2c3c1O[C@H]1C(=O)CC[C@@]4(O)[C@@H](C2)N(C)CC[C@]314 [Oxycodone]
Therapeutic plasma concentration [2]: 10 to 100 ng/mL
Toxic plasma concentration [2]: greater than 200 ng/mL

CC(Cc1ccccc1)NC(=O)C(N)Cc1ccccc1 (centres unmarked) [Phe-Amp, 2-amino-3-phenylpropanoic acid-(1-methyl-2-phenylethyl)-amide]
Bioequivalence with amphetamine [1]: bioequivalent with amphetamine

CC(Cc1ccccc1)NC(=O)C(N)CO (centres unmarked) [S-Amp]
Percent AUC [1, 6]: 79%
Percent Cmax [1, 6]: 62%
Percent AUC [1, 7]: 55%
Percent Cmax [1, 7]: 75%

CC(Cc1ccccc1)NC(=O)C(N)CO (centres unmarked) [Ser-Amp, 2-amino-3-hydroxylpropanoic acid-(1-methyl-2-phenylethyl)-amide]
Bioequivalence with amphetamine [1]: not bioequivalent with amphetamine

CC[C@H](C)[C@H](NC(=O)[C@H](Cc1ccccc1)NC(=O)[C@H](Cc1ccccc1)NC(=O)[C@H](Cc1ccc(O)cc1)NC(=O)[C@@H](N)Cc1ccc(O)cc1)C(=O)OC1=CC[C@H]2[C@H]3Cc4ccc(OC)c5c4[C@@]2(CCN3C)[C@H]1O5 [YYFFI[SEQ ID NO: 3]-HC] (H-YYFFI-X1)
hydrocodone plus hydromorphone concentration ([3]; 5 Minutes): 28 ng/mL
hydrocodone plus hydromorphone concentration ([3]; 15 Minutes): 27 ng/mL
hydrocodone plus hydromorphone concentration ([3]; 30 Minutes): 16 ng/mL
hydrocodone plus hydromorphone concentration ([3]; 60 Minutes): 21 ng/mL
AUC (ng/ml h) 0-1 h [3]: 20 ng·h/mL
Cmax [3]: 28 ng/mL
Percent HC (AUC) [3]: 100%
Percent HC (Cmax) [3]: 5%

CC[C@H](C)[C@H](NC(=O)[C@H](Cc1ccc(O)cc1)NC(=O)[C@@H](N)Cc1ccc(O)cc1)C(=O)OC1=CC[C@H]2[C@H]3Cc4ccc(OC)c5c4[C@@]2(CCN3C)[C@H]1O5 [YYI-HC, Tyr-Tyr-Ile-Hydrocodone]
hydrocodone plus hydromorphone concentration ([4]; 5 Minutes): 9 ng/mL
hydrocodone plus hydromorphone concentration ([4]; 15 Minutes): 13 ng/mL
hydrocodone plus hydromorphone concentration ([4]; 30 Minutes): 13 ng/mL
hydrocodone plus hydromorphone concentration ([4]; 60 Minutes): 3 ng/mL
AUC (ng/ml h) 0-1 h ([4]; hydrocodone plus hydromorphone): 10 ng·h/mL
Cmax ([4]; hydrocodone plus hydromorphone): 13 ng/mL
Percent HC (AUC) [4, 8]: 7%
Percent HC (Cmax) [4, 8]: 6%
hydrocodone plus hydromorphone concentration ([3]; 5 Minutes): 31 ng/mL
hydrocodone plus hydromorphone concentration ([3]; 15 Minutes): 17 ng/mL
hydrocodone plus hydromorphone concentration ([3]; 30 Minutes): 12 ng/mL
hydrocodone plus hydromorphone concentration ([3]; 60 Minutes): 2 ng/mL
AUC (ng/ml h) 0-1 h [3]: 12 ng·h/mL
Cmax [3]: 31 ng/mL
Percent HC (AUC) [3]: 4%
Percent HC (Cmax) [3]: 6%
Percent Decrease 1 mg/kg vs. 5 mg/kg AUC ([5]; oral bioavailability): 41%
Percent Decrease 1 mg/kg vs. 5 mg/kg Cmax ([5]; oral bioavailability): 60%
hydrocodone plus hydromorphone concentration ([5]; oral, 1 mg/kg dose, 0.5 Hours): 9.2 ng/mL
hydrocodone plus hydromorphone concentration ([5]; oral, 1 mg/kg dose, 1.5 Hours): 4.3 ng/mL
hydrocodone plus hydromorphone concentration ([5]; oral, 1 mg/kg dose, 3 Hours): 1.5 ng/mL
hydrocodone plus hydromorphone concentration ([5]; oral, 1 mg/kg dose, 5 Hours): 1.1 ng/mL
hydrocodone plus hydromorphone concentration ([5]; oral, 1 mg/kg dose, 8 Hours): 1.8 ng/mL
AUC (ng/ml h) 0-8 h ([5]; oral, 1 mg/kg dose): 20.4 ng·h/mL
Cmax ([5]; oral, 1 mg/kg dose): 9.2 ng/mL
Percent HC (AUC) ([5]; oral, 1 mg/kg dose): 78%
Percent HC (Cmax) ([5]; oral, 1 mg/kg dose): 100%
hydrocodone plus hydromorphone concentration ([5]; oral, 5 mg/kg dose, 0.5 Hours): 15 ng/mL
hydrocodone plus hydromorphone concentration ([5]; oral, 5 mg/kg dose, 1.5 Hours): 6.3 ng/mL
hydrocodone plus hydromorphone concentration ([5]; oral, 5 mg/kg dose, 3 Hours): 3.3 ng/mL
hydrocodone plus hydromorphone concentration ([5]; oral, 5 mg/kg dose, 5 Hours): 1.6 ng/mL
hydrocodone plus hydromorphone concentration ([5]; oral, 5 mg/kg dose, 8 Hours): 2.7 ng/mL
AUC (ng/ml h) 0-8 h ([5]; oral, 5 mg/kg dose): 33 ng·h/mL
Cmax ([5]; oral, 5 mg/kg dose): 15 ng/mL
Percent HC (AUC) ([5]; oral, 5 mg/kg dose): 46%
Percent HC (Cmax) ([5]; oral, 5 mg/kg dose): 41%
Peak levels and bioavailability ([5]; rat, oral, 5 mg/kg): substantially decreased
